# In IntAct's records for PubMed 20956287:
# B1: SH2 domain-containing protein 3C (Mus musculus), Q9QZS8-1 (parent)
# chain: MTEMPKKTGRKFKFFKFKGLGSLSNLPRSFSLRRSSASASIRSCPEPDTFEATQDDMVTLPKSPPAYARSSDMYSHMGTMPRPNIKKAQKQQAVQKAQEVSRESHLVSRRLPEPPDLEAAKEAGEGTEALLEDTAPSAVEVDPMRELEDLTVDTEKEQVPGDVSPERTAAELEAAGDYVKFSKEKYILDSSPEKLHKELEEELKLSSTDLRSHAWYHGRIPREVSETLVQRNGDFLIRDSLTSLGDYVLTCRWHNQALHFKINKVVVKAGESYTHIRYLFEQESFDHVPALVRYHVGSRKAVSEQSGAIIYCPVNRTFPLRYLEASYGLSQGSSKTASPASPSGSKGSHMKRRSITMTDGLTTDKVTRSDGCPNSTSLPHPRDSIRNCALSMDQIPDLHSPLSPISESPSSPAYSTVTRVHAPSATPSTSAQPASPVARRSSEPQLCPGNTPKPPGESDRAPHASPSHTLCKASPSPSLSSYSDPDSGHYCQLQPPVRGSREQAAGETPRKARGSGERQKELLENGVSDGEWGKTFTVPVVEATSSFNLATFQSQLIPKENRPLEVALLRKVKELLSEVDARTLARHVTKVDCLVARILGVTKEMQTLMGVRWGMELLTLPHGRQLRLDLLERFHTMSIMLAVDILGCTGSAEERAALLHKTIQLAAELRGTMGNMFSFAAVMGALEMAQISRLEQTWMTLRQRHTEGAILYEKKLKPFLKSLNEGKEGPPLSNTTFPHVLPFITLLECDSAPAEGPEPWGSTEHGVEVVLAHLEAARTVAHHGGLYHTNAEVKLQGFQARPELLEVFSTEFQMRLLWGSQGANSSQAWRYEKFDKVLTALSHKLEPAIRSSEL
# partner: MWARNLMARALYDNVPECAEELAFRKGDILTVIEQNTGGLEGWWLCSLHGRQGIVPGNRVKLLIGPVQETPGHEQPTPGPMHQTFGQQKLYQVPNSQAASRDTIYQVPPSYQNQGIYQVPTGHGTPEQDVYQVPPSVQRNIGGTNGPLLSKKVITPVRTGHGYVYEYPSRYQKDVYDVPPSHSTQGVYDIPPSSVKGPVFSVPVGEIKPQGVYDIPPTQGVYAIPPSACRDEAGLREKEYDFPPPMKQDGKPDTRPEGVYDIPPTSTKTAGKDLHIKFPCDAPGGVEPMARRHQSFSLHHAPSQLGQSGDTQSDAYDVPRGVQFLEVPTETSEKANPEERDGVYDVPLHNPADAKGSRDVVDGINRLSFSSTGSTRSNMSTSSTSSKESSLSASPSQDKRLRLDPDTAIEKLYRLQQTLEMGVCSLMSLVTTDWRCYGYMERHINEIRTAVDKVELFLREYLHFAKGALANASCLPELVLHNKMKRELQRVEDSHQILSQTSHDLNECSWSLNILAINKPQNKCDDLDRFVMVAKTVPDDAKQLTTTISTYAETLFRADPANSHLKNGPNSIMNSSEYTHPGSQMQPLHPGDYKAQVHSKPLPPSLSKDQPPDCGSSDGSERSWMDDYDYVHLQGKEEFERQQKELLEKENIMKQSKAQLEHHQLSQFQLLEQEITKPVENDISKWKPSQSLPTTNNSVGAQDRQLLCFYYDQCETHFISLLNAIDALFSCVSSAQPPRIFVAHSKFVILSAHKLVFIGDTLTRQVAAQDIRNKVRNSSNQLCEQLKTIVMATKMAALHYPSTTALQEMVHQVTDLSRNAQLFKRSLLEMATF
# Variants of: B1
# Details: with casl_mouse Nedd9, O35177
row,Variant,effect of a mutation on the interaction
1,Y787E,disrupting interaction
